Results reported in patent publication US20250327097A1, “ORGANISMS PRODUCING LESS CROTONIC ACID” (Global Bioenergies, priority 2021, published 2025).

The molecules below were run on 3-methylcrotonic acid.
Assay type: biochemical, Yersinia frederiksenii
Set-up: key: “+” representing a low increase in activity; “++++” representing a high increase in activity

Molecule | Activity relative to WT
I283T-N285P-N287T-Q290E-S322T-N388M-K394R-E421F-C430A-L432F-L434W-S436N-i448aS-dG462 (protein) MFLKSLREQINLLKRQGDLRIINRPVDSYLEAAAIIRRSTETKAPVPLMTNIKGYPGCSIVGGLAALSSNPEYPLSRVAMSLGLSTTASAQSIVQYLIDGLKKTPYLPVEIDSNSAPCKQNILRGEDASLAHFPIPQVHQHDGNRYVNTWGVFIVESPDGQWCNWSIQRVQYLNDRQMIALVFPSQHISDIWEEWVKIGKPMPYALVQGCEPIVPYIAGLPLLERNVNEAEYIGALYGKGIEVVKCETHDLRVPASSEVVIEGYFAITREGVEGPFGEFAGYTPPETSLEPILSITAISWQDDPIWPVVAEGKPVDEYHTCTGIGDAAAIQNVLLTANLPVSFVWVPLYSACHLMIVSINRHWRQTHPDLTSEQLTKKVGDVIHQTRMSIKLPRIVVLDDDVDPADTESLLWALATRIHPFRKRYFYESAIFPWLNCYSEEERHNRKGKRVIIDALLPENHGAISSFDYAYPDDIKQRVLMHWETDFSHD | ++++
L223Y-I283T-N285P-N287T-Q290E-S322T-N388M-K394R-i429aN-C430A-L432F-L434W-S436N-dG462 (protein) MFLKSLREQINLLKRQGDLRIINRPVDSYLEAAAIIRRSTETKAPVPLMTNIKGYPGCSIVGGLAALSSNPEYPLSRVAMSLGLSTTASAQSIVQYLIDGLKKTPYLPVEIDSNSAPCKQNILRGEDASLAHFPIPQVHQHDGNRYVNTWGVFIVESPDGQWCNWSIQRVQYLNDRQMIALVFPSQHISDIWEEWVKIGKPMPYALVQGCEPIVPYIAGLPLYERNVNEAEYIGALYGKGIEVVKCETHDLRVPASSEVVIEGYFAITREGVEGPFGEFAGYTPPETSLEPILSITAISWQDDPIWPVVAEGKPVDEYHTCTGIGDAAAIQNVLLTANLPVSFVWVPLYSACHLMIVSINRHWRQTHPDLTSEQLTKKVGDVIHQTRMSIKLPRIVVLDDDVDPADTESLLWALATRIHPERKRYFYESAIFPWLNCYSEEERHNRKGKRVIIDALLPENHGAISSFDYAYPDDIKQRVLMHWETDFSHD | ++++
L223Y-I283T-N285P-N287T-Q290E-S322T-N388M-K394R-K423G-C430A-L432F-L434W-S436N-i448aS-dG462 (protein) MFLKSLREQINLLKRQGDLRIINRPVDSYLEAAAIIRRSTETKAPVPLMTNIKGYPGCSIVGGLAALSSNPEYPLSRVAMSLGLSTTASAQSIVQYLIDGLKKTPYLPVEIDSNSAPCKQNILRGEDASLAHFPIPQVHQHDGNRYVNTWGVFIVESPDGQWCNWSIQRVQYLNDRQMIALVFPSQHISDIWEEWVKIGKPMPYALVQGCEPIVPYIAGLPLYERNVNEAEYIGALYGKGIEVVKCETHDLRVPASSEVVIEGYFAITREGVEGPFGEFAGYTPPETSLEPILSITAISWQDDPIWPVVAEGKPVDEYHTCTGIGDAAAIQNVLLTANLPVSFVWVPLYSACHLMIVSINRHWRQTHPDLTSEQLTKKVGDVIHQTRMSIKLPRIVVLDDDVDPADTESLLWALATRIHPERGRYFYESAIFPWLNCYSEEERHNRKGKRVIIDALLPENHGAISSFDYAYPDDIKQRVLMHWETDFSHD | ++++
L223Y-I283T-N285P-N287T-Q290E-S322T-N388M-K394R-K423G-C430A-i430aL-L432F-L434W-S436N-dG462 (protein) MFLKSLREQINLLKRQGDLRIINRPVDSYLEAAAIIRRSTETKAPVPLMTNIKGYPGCSIVGGLAALSSNPEYPLSRVAMSLGLSTTASAQSIVQYLIDGLKKTPYLPVEIDSNSAPCKQNILRGEDASLAHFPIPQVHQHDGNRYVNTWGVFIVESPDGQWCNWSIQRVQYLNDRQMIALVFPSQHISDIWEEWVKIGKPMPYALVQGCEPIVPYIAGLPLYERNVNEAEYIGALYGKGIEVVKCETHDLRVPASSEVVIEGYFAITREGVEGPFGEFAGYTPPETSLEPILSITAISWQDDPIWPVVAEGKPVDEYHTCTGIGDAAAIQNVLLTANLPVSFVWVPLYSACHLMIVSINRHWRQTHPDLTSEQLTKKVGDVIHQTRMSIKLPRIVVLDDDVDPADTESLLWALATRIHPERGRYFYESAIFPWLNCYSEEERHNRKGKRVIIDALLPENHGAISSFDYAYPDDIKQRVLMHWETDFSHD | ++++
L223Y-I283T-N285P-N287T-Q290E-S322T-N388M-K394R-E421F-K423G-C430A-L432F-L434W-S436N-dG462 (protein) MFLKSLREQINLLKRQGDLRIINRPVDSYLEAAAIIRRSTETKAPVPLMTNIKGYPGCSIVGGLAALSSNPEYPLSRVAMSLGLSTTASAQSIVQYLIDGLKKTPYLPVEIDSNSAPCKQNILRGEDASLAHFPIPQVHQHDGNRYVNTWGVFIVESPDGQWCNWSIQRVQYLNDRQMIALVFPSQHISDIWEEWVKIGKPMPYALVQGCEPIVPYIAGLPLYERNVNEAEYIGALYGKGIEVVKCETHDLRVPASSEVVIEGYFAITREGVEGPFGEFAGYTPPETSLEPILSITAISWQDDPIWPVVAEGKPVDEYHTCTGIGDAAAIQNVLLTANLPVSFVWVPLYSACHLMIVSINRHWRQTHPDLTSEQLTKKVGDVIHQTRMSIKLPRIVVLDDDVDPADTESLLWALATRIHPFRGRYFYESAIFPWLNCYSEEERHNRKGKRVIIDALLPENHGAISSFDYAYPDDIKQRVLMHWETDFSHD | ++++
L223Y-I283T-N285P-N287T-Q290E-S322T-N388M-K394R-C430A-i430aG-L432F-L434W-S436N-C437L-dG462 (protein) MFLKSLREQINLLKRQGDLRIINRPVDSYLEAAAIIRRSTETKAPVPLMTNIKGYPGCSIVGGLAALSSNPEYPLSRVAMSLGLSTTASAQSIVQYLIDGLKKTPYLPVEIDSNSAPCKQNILRGEDASLAHFPIPQVHQHDGNRYVNTWGVFIVESPDGQWCNWSIQRVQYLNDRQMIALVFPSQHISDIWEEWVKIGKPMPYALVQGCEPIVPYIAGLPLYERNVNEAEYIGALYGKGIEVVKCETHDLRVPASSEVVIEGYFAITREGVEGPFGEFAGYTPPETSLEPILSITAISWQDDPIWPVVAEGKPVDEYHTCTGIGDAAAIQNVLLTANLPVSFVWVPLYSACHLMIVSINRHWRQTHPDLTSEQLTKKVGDVIHQTRMSIKLPRIVVLDDDVDPADTESLLWALATRIHPERKRYFYESAIFPWLNLYSEEERHNRKGKRVIIDALLPENHGAISSFDYAYPDDIKQRVLMHWETDFSHD | ++++
L223Y-I283T-N285P-N287T-Q290E-S322T-N388M-K394R-C430A-i430aG-L432F-L434W-S436N-dG462 (protein) MFLKSLREQINLLKRQGDLRIINRPVDSYLEAAAIIRRSTETKAPVPLMTNIKGYPGCSIVGGLAALSSNPEYPLSRVAMSLGLSTTASAQSIVQYLIDGLKKTPYLPVEIDSNSAPCKQNILRGEDASLAHFPIPQVHQHDGNRYVNTWGVFIVESPDGQWCNWSIQRVQYLNDRQMIALVFPSQHISDIWEEWVKIGKPMPYALVQGCEPIVPYIAGLPLYERNVNEAEYIGALYGKGIEVVKCETHDLRVPASSEVVIEGYFAITREGVEGPFGEFAGYTPPETSLEPILSITAISWQDDPIWPVVAEGKPVDEYHTCTGIGDAAAIQNVLLTANLPVSFVWVPLYSACHLMIVSINRHWRQTHPDLTSEQLTKKVGDVIHQTRMSIKLPRIVVLDDDVDPADTESLLWALATRIHPERKRYFYESAIFPWLNCYSEEERHNRKGKRVIIDALLPENHGAISSFDYAYPDDIKQRVLMHWETDFSHD | ++++
L223Y-I283T-N285P-N287T-Q290E-S322T-N388M-K394R-K423G-C430A-i430aN-L432F-L434W-S436N-dG462 (protein) MFLKSLREQINLLKRQGDLRIINRPVDSYLEAAAIIRRSTETKAPVPLMTNIKGYPGCSIVGGLAALSSNPEYPLSRVAMSLGLSTTASAQSIVQYLIDGLKKTPYLPVEIDSNSAPCKQNILRGEDASLAHFPIPQVHQHDGNRYVNTWGVFIVESPDGQWCNWSIQRVQYLNDRQMIALVFPSQHISDIWEEWVKIGKPMPYALVQGCEPIVPYIAGLPLYERNVNEAEYIGALYGKGIEVVKCETHDLRVPASSEVVIEGYFAITREGVEGPFGEFAGYTPPETSLEPILSITAISWQDDPIWPVVAEGKPVDEYHTCTGIGDAAAIQNVLLTANLPVSFVWVPLYSACHLMIVSINRHWRQTHPDLTSEQLTKKVGDVIHQTRMSIKLPRIVVLDDDVDPADTESLLWALATRIHPERGRYFYESAIFPWLNCYSEEERHNRKGKRVIIDALLPENHGAISSFDYAYPDDIKQRVLMHWETDFSHD | ++++
I283T-N285P-N287T-Q290E-S322T-N388M-K394R-C430A-i430aG-L432F-L434W-S436N-C437L-dG462 (protein) MFLKSLREQINLLKRQGDLRIINRPVDSYLEAAAIIRRSTETKAPVPLMTNIKGYPGCSIVGGLAALSSNPEYPLSRVAMSLGLSTTASAQSIVQYLIDGLKKTPYLPVEIDSNSAPCKQNILRGEDASLAHFPIPQVHQHDGNRYVNTWGVFIVESPDGQWCNWSIQRVQYLNDRQMIALVFPSQHISDIWEEWVKIGKPMPYALVQGCEPIVPYIAGLPLLERNVNEAEYIGALYGKGIEVVKCETHDLRVPASSEVVIEGYFAITREGVEGPFGEFAGYTPPETSLEPILSITAISWQDDPIWPVVAEGKPVDEYHTCTGIGDAAAIQNVLLTANLPVSFVWVPLYSACHLMIVSINRHWRQTHPDLTSEQLTKKVGDVIHQTRMSIKLPRIVVLDDDVDPADTESLLWALATRIHPERKRYFYESAIFPWLNLYSEEERHNRKGKRVIIDALLPENHGAISSFDYAYPDDIKQRVLMHWETDFSHD | ++++
L223Y-I283T-N285P-N287T-Q290E-S322T-N388M-K394R-K423G-C430A-i430aG-L432F-L434W-S436N-dG462 (protein) MFLKSLREQINLLKRQGDLRIINRPVDSYLEAAAIIRRSTETKAPVPLMTNIKGYPGCSIVGGLAALSSNPEYPLSRVAMSLGLSTTASAQSIVQYLIDGLKKTPYLPVEIDSNSAPCKQNILRGEDASLAHFPIPQVHQHDGNRYVNTWGVFIVESPDGQWCNWSIQRVQYLNDRQMIALVFPSQHISDIWEEWVKIGKPMPYALVQGCEPIVPYIAGLPLYERNVNEAEYIGALYGKGIEVVKCETHDLRVPASSEVVIEGYFAITREGVEGPFGEFAGYTPPETSLEPILSITAISWQDDPIWPVVAEGKPVDEYHTCTGIGDAAAIQNVLLTANLPVSFVWVPLYSACHLMIVSINRHWRQTHPDLTSEQLTKKVGDVIHQTRMSIKLPRIVVLDDDVDPADTESLLWALATRIHPERGRYFYESAIFPWLNCYSEEERHNRKGKRVIIDALLPENHGAISSFDYAYPDDIKQRVLMHWETDFSHD | ++++
